Results as given in IntAct's records for PubMed 16280327.

B1: B-cell lymphoma/leukemia 10 (Homo sapiens), O95999 (parent)
chain: MEPTAPSLTEEDLTEVKKDALENLRVYLCEKIIAERHFDHLRAKKILSREDTEEISCRTSSRKRAGKLLDYLQENPKGLDTLVESIRREKTQNFLIQKITDEVLKLRNIKLEHLKGLKCSSCEPFPDGATNNLSRSNSDESNFSEKLRASTVMYHPEGESSTTPFFSTNSSLNLPVLEVGRTENTIFSSTTLPRPGDPGAPPLPPDLQLEEEGTCANSSEMFLPLRSRTVSRQ
partner: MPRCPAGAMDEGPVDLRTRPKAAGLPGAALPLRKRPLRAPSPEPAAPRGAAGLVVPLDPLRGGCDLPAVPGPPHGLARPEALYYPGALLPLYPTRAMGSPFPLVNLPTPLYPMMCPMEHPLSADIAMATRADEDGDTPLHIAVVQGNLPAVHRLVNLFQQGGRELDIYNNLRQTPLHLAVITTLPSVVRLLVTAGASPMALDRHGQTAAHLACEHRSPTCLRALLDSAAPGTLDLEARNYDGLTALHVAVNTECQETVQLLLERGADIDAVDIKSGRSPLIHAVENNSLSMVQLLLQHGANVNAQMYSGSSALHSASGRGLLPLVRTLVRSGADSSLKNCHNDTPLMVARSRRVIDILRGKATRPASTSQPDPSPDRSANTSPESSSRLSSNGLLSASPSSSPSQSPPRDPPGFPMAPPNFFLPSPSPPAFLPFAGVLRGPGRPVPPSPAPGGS

Variants of: B1
Conditions: with bcl3_human BCL3, P20749

effect of a mutation on the interaction	Variant
increasing interaction	S218D
increasing interaction	S231D
